Test results taken from patent US7625735B2, “Recombinant kinase from insect cells for the synthesis of nucleoside monophosphates” (Roche Diagnostic Operations, Inc., priority 1998, dated 2009).

B1: recombinant Dm-kinase: recombinant multifunctional deoxynucleoside kinase from Drosophila Melanogaster, expressed in E. coli (protein, UniProt Q9XZT6 1-250, looked up)
Deoxynucleoside kinase: MAEAASCARKGTKYAEGTQPFTVLIEGNIGSGKTTYLNHFEKYKNDICLLTEPVEKWRNVNGVNLLELMYKDPKKWAMPFQSYVTLTMLQSHTAPTNKKLKIMERSIFSARYCFVENMRRNGSLEQGMYNTLEEWYKFIEESIHVQADLIIYLRTSPEVAYERIRQRARSEESCVPLKYLQELHELHEDWLIHQRRPQSCKVLVLDADLNLENIGTEYQRSESSIFDAISSNQQPSPVLVSPSKRQRVAR
B2: native Dm-kinase: native, isolated deoxynucleoside kinase from Drosophila Melanogaster, used for comparison (protein, UniProt Q9XZT6 1-250, looked up)
Deoxynucleoside kinase: B1 Deoxynucleoside kinase

Legend:
[1] = Stability: remaining activity of recombinant versus native Dm-kinase after incubation at 37° C.; assay type: physicochemical
Procedure: The activity of the recombinant Dm-kinase compared to native, isolated Dm-kinase was determined. After different periods of incubation in 50 mM Tris 7.5+2.5 mM MgCl2 at 37° C. the remaining activity was determined.

[2] = Activity of the kinase from D. Melanogaster at different temperatures; assay type: biochemical; details: wide optimum
Procedure: The activity of the Dm-nucleoside kinase was determined at different temperatures. […] (see FIG. 6).
The activity test is described in reference No. 14.

[3] = Kinetic constants of the Drosophila kinase compared to known analogous enzymes; assay type: biochemical; details: versus hitherto known kinases, Kc values
Source text: Furthermore, […]; as a consequence, for the synthesis of the individual nucleosides it is no more necessary to have the corresponding specific kinase. Particularly advantageous is the low specificity for the synthesis of modified nucleoside analogues, such as dideoxynucleosides or base- or sugar-modified nucleosides. Base-modified nucleosides are for example 7-deaza-nucleosides, C-nucleosides and nucleotides labelled with reporter groups (dye, digoxigenin, biotin) at the base. Sugar-modified nucleosides are for example azathymidine, arabinosyl-thymidine. The specific activity kc of the kinase according to the invention is several times higher than that of the kinases known before. The activity of the enzyme was measured as described in the reference: Munch-Peterson et al. (1991) J. Biol. Chem. 266, 9032-9038. By this, a considerably lower amount of enzyme is necessary to synthesize the dNMPs. (factor 3.5-14000, cf. Kc values in table 1). The specificity constant (kc/KM) of the kinase according to the invention exceeds that of the hitherto known kinases by several powers and is in the region of the diffusion constant. This leads to the complete yield when the kinase is added to the d-NMP synthesis. They are higher by factor 2-6500 than the hitherto known kinases, s. FIG. 1. […]

temperature of maximum activity [2] | Molecule | stability (remaining activity) ([1]; 50 mM Tris 7.5+2.5 mM MgCl2, 37° C., without addition of BSA) | half-life ([1]; Tris buffer in the presence of MgCl2, 37° C.) | half-life ([1]; Tris buffer without MgCl2, 37° C.) | half-life ([1]; pure water) | factor by which specific activity kc exceeds known kinases (lower amount of enzyme necessary) [3] | stability (remaining activity) ([1]; 50 mM Tris 7.5+2.5 mM MgCl2, 37° C., with 2.5 mg/ml BSA) | half-life ([1]; under the same conditions) | remaining activity ([1]; within 50 min, 50 mM Tris 7.5+2.5 mM MgCl2, 37° C., without BSA)
60 °C | B1 | remains stable | 50 h | 31 h | 28 h | 3.5-14000 | – | – | –
– | B2 | – | – | – | – | – | remains stable | < 0.2 h | < 20%
